Experimental data reported in patent US6602687B1, “DNA encoding human ciliary neurotrophic factor and method for producing the protein encoded thereby” (Regeneron Pharmaceuticals, Inc., priority 1989, dated 2003).

Tests used:
[1] = tested on: E8 dorsal root ganglion neurons; assay: Survival and neurite outgrowth of dorsal root ganglion neurons / DRG assay with E. coli protein extracts; type: cell-based; settings: protein extracts of E. coli carrying human CNTF sequence in pCP93
Procedure: In addition, protein extracts were prepared from the same cells lysed by treatment with lysozyme followed by three cycles of freezing and thawing. […] No such activity could be detected in control extracts from the same host cells carrying the plasmid vector without the rCNTF gene.
Human CNTF sequence, engineered to lack intron sequences, has been inserted into the pCP93 vector and used to transform competent E. coli.

[2] = tested on: E8 chick ciliary ganglion neurons; assay: Survival of dissociated E8 chick ciliary ganglion neurons; type: cell-based; settings: increasing amounts of pure protein
Source text: Ciliary neurotrophic factor activity may be evaluated using any CNTF-sensitive in vivo or in vitro system known in the art. For example, and not by way of limitation, in vitro systems have been developed which measure CNTF activity by quantitating 24-hour survival of embryonic (E8) chick ciliary ganglion (CG) neurons in monolayer cultures.
For example, ciliary ganglia may be collected from E8 chick embryos, dissociated (yielding approximately 20,000 cells per ganglion) and then diluted in HEBM medium containing 20 percent horse serum as described in Varon et al. (1979, Brain Res. 173:29-45). About fifty microliters of cell suspension containing neurons (2,000 cells) may then be seeded into microliter dishes and putative CNTF activity may be added. Culture plates may then be maintained at 37° C. in 5% CO2 for 24 hours, after which the cultures may be fixed by the addition of 200 μl 2 per cent glutaraldehyde in HEBM medium, and the number of surviving neurons may be determined visually by direct count under phase contrast microscopy.
Chick embryo ciliary ganglion cultures were created and maintained according to the method set forth in (Hughes et al., 1988, Nature 335 : 70-73).
(§1) Biological activity of recombinant CNTF was assayed on explants of chick embryo dorsal root ganglia (DRG) and dissociated cultures of ciliary ganglion (CG) neurons as described in Lindsay and Rohrer (1985, Devel. Biol 112:30-48). Briefly, DRG were dissected from chick embryos of 10 days incubation (E10) and 5-6 ganglia were explanted in 1 ml of a collagen gel matrix in 35 mm tissue culture dishes. After the gel had set, 1 ml of tissue culture growth medium F14 (Imperial Labs., U.K.) supplemented with 5% heat-inactivated horse serum (GIBCO) was added before adding human CNTF (1-20 l) to a final concentration of 100 pg to 100 ng/ml. CG were dissected from E8 chick embryos and incubated for 30 min in 0.25% trypsin (Worthington) in calcium- and magnesium-free phosphate buffered saline. The ganglia were then washed three times in F14 medium containing 5% horse serum before being dissociated to a single cell suspension by trituration through the bore of a Pasteur pipette. Enrichment for CG neurons was achieved by plating the cell suspension for 3.5 hr in a 60 mm dish, during which non-neuronal cells (fibroblasts and Schwann cells) attached firmly to the plastic while phase-bright neurons remained in suspension. The purified neurons were plated on polyornithine-laminin-coated 35 mm culture dishes at 8,000-10,000 neurons/dish. In explant cultures CNTF activity was determined by assessing the extent of fiber outgrowth in treated cultures compared to controls. Fiber outgrowth was scored on a scale of 0 to 5+, by comparing cultures to photographs of a dose-response of explanted DRG and NGF. In dissociated CG neuron cultures, CNTF activity was determined by counting at 48 hr the percentage of process-bearing neurons in control and CNTF-treated cultures. In all cases results were derived from triplicate cultures.

E10 chick DRG = assay: Fiber outgrowth from explants of E10 chick embryo dorsal root ganglia; type: cell-based
Procedure: as §1, with “The ganglia were then washed three times in F14 medium containing 5% horse serum before being dissociated to a single cell suspension by trituration through the bore of a Pasteur pipette. Enrichment for CG neurons was achieved by plating the cell suspension for 3.5 hr in a 60 mm dish, during which non-neuronal cells (fibroblasts and Schwann cells) attached firmly to the plastic while phase-bright neurons remained in suspension. The purified neurons were plated on polyornithine-laminin-coated 35 mm culture dishes at 8,000-10,000 neurons/dish.” left out, “In all cases results were derived from triplicate cultures.” left out

[3] = tested on: Mediodorsal (MD) spinal cord neurons; assay: E14 rat mediodorsal spinal cord neuron cultures in defined medium; type: cell-based; settings: CNTF 2 μl/ml (recombinant rat, E. coli extract), NGF 50 ng/ml at plating; day 7; Bradford
Source text: (§2) Sprague-Dawley rats (HSD) were used for all experiments. Pregnant rats were sacrificed by carbon dioxide asphyxiation, and the embryos were rapidly removed and placed in ice-cold Puck's saline G for further dissection.
(§3) Spinal cords were removed aseptically from rat embryos on the 14th day of gestation. The spinal cord was severed caudal to the bulb, freed of sensory ganglia and meninges. The cord was then subdivided into ventral and mediodorsal segments for separate cultures. The cord tissues were minced into small pieces and mechanically dissociated by trituration through a Pasteur pipet in defined culture medium consisting of 50% basal medium Eagle (BME; Gibco) and 50% Ham's nutrient mixture F12 (Gibco) supplemented with glucose (33 mM), glutamine (2 mM, NaHCO3 (15 mM), HEPES (10 mM), insulin (25 μg/ml), transferrin (100 μg/ml) putrescine (60 μM), progesterone (20 nM), Na selenite (30 nM), penicillin G (0.5 μg/ml), streptomycin (0.5 μg/ml), and bovine serum albumin (2.5 μg/ml). Trituration was repeated twice and the supernatants were pooled and filtered through a nylon (Nitex, Tetko) filter (40 μm). Total cell number yielded was determined by hemocytometer counting in the presence of trypan blue. Dissociated ventral cells were then plated at a density of 0.5 million cells/35 mm dish coated with poly-D-lysine (10 μg/ml). Dissociated mediodorsal cells were plated at a density of 1.5 million/35 mm dish coated with poly-D-lysine (10 μg/ml), poly-L-ornithine (10 μg/ml), or poly-L-ornithine with laminin (5 μg/ml). Treatments to these cultures were added at the time of plating. Cultures were maintained at 37° C. in a 95% air/5% CO2 atmosphere at nearly 100% relative humidity. Culture medium was changed every three to four days.

[4] = tested on: Ventral spinal cord neurons; assay: E14 rat ventral spinal cord neuron cultures in defined medium; type: cell-based; settings: CNTF 2 μl/ml, NGF 50 ng/ml at plating; day 7
Source text: as §2, §3

[5] = tested on: Ventral spinal cord neurons; assay: Neurofilament (NF) assay in ventral spinal cord neuron cultures; type: cell-based, rat; settings: CNTF 10 ng/ml, NGF 50 ng/ml at plating; day 7
Procedure: (§4) Sprague-Dawley rats (HSD or Zivic-Miller) were used for all experiments. Pregnant rats (E14) were sacrificed as described in 10.1.1.
Spinal cords were removed aseptically from rat embryos as described in 10.1.2. The cord tissues were minced into small pieces and incubated in 0.1% trypsin (GIBCO) and 0.01% deoxyribonuclease type 1 (Sigma) at 37° C. for 20 minutes. Trypsin solution was then removed, rinsed and replaced with medium consisting of 45% Eagle's minimum essential medium (MEM), 45% Ham's nutrient mixture F12 (F12), 5% fetal calf serum (GIBCO), 5% horse serum (GIBCO) glutamine (2 mM), penicillin G (0.5 U/ml), and streptomycin (0.5 ug/ml). […] Total cell number yielded was determined by hemocytometer counting in the presence of trypan blue. […]
After fixation of the cells in 4% paraformaldehyde at 4° C. for 2 hours, the cultures were then permeabilized and blocked according to the procedures described in Doherty et al. (1984, J. Neurochem. 42:1116-1122). Neurofilament protein was detected using a monoclonal antibody RT97 (Wood and Anderton, 1981, Biosci. Rep. 1:263-268) at a 1:1000 dilution. The reaction product was visualized using O-phenylenediamine (OPD) as a substrate and optical density was measured at 490 nm.

[6] = tested on: AchE-containing ventral spinal cord neurons; assay: Count of AchE-containing neurons in ventral spinal cord cultures; type: cell-based, rat; settings: CNTF 10 ng/ml at plating; 7 days
Procedure: as §4
Spinal cords were removed aseptically from rat embryos as described in 10.1.2. The cord tissues were minced into small pieces and incubated in 0.1% trypsin (GIBCO) and 0.01% deoxyribonuclease type 1 (Sigma) at 37° C. for 20 minutes. Trypsin solution was then removed, rinsed and replaced with medium consisting of 45% Eagle's minimum essential medium (MEM), 45% Ham's nutrient mixture F12 (F12), 5% fetal calf serum (GIBCO), 5% horse serum (GIBCO) glutamine (2 mM), penicillin G (0.5 U/ml), and streptomycin (0.5 ug/ml). This was then mechanically dissociated twice by gentle trituration through a Pasteur pipet in the same medium, and the supernatants were pooled and filtered through a nylon filter (Nitex, Tetko; 40 um). Total cell number yielded was determined by hemocytometer counting in the presence of trypan blue. Dissociated ventral cells were then plated at a density of approximately 50,000 cells/cm^2 on dishes coated with poly-L-ornithine (10 ug/ml) and laminin (5 ug/ml). Treatments were given on the day of plating, except for delayed addition experiments in which treatments were given on days 2 or 6. Cultures were maintained at 37° C. in 95% air/5% CO2 atmosphere at nearly 100% relative humidity. Culture medium was changed every 3 to 4 days. […]

[7] = tested on: Ventral spinal cord neurons; assay: Choline acetyltransferase (CAT) activity in ventral spinal cord cultures; type: cell-based, rat; settings: CNTF 10 ng/ml, NGF 50 ng/ml, FGF 50 ng/ml at plating; after 7 days in culture
Procedure: as §4
Spinal cords were removed aseptically from rat embryos as described in 10.1.2. The cord tissues were minced into small pieces and incubated in 0.1% trypsin (GIBCO) and 0.01% deoxyribonuclease type 1 (Sigma) at 37° C. for 20 minutes. Trypsin solution was then removed, rinsed and replaced with medium consisting of 45% Eagle's minimum essential medium (MEM), 45% Ham's nutrient mixture F12 (F12), 5% fetal calf serum (GIBCO), 5% horse serum (GIBCO) glutamine (2 mM), penicillin G (0.5 U/ml), and streptomycin (0.5 ug/ml). This was then mechanically dissociated twice by gentle trituration through a Pasteur pipet in the same medium, and the supernatants were pooled and filtered through a nylon filter (Nitex, Tetko; 40 um). Total cell number yielded was determined by hemocytometer counting in the presence of trypan blue. Dissociated ventral cells were then plated at a density of approximately 50,000 cells/cm^2 on dishes coated with poly-L-ornithine (10 ug/ml) and laminin (5 ug/ml). Treatments were given on the day of plating, except for delayed addition experiments in which treatments were given on days 2 or 6. Cultures were maintained at 37° C. in 95% air/5% CO2 atmosphere at nearly 100% relative humidity. Culture medium was changed every 3 to 4 days. A mitotic inhibitor, cytosine arabinoside (Ara C; 0.5 uM), was added on day 2 to reduce the number of nonneuronal cells. On day 7, cells were harvested for measurements of choline acetyltransferase (CAT; Fonnum, 1975 J. Neurochem. 24:407-409) and protein (Bradford, 1976, Annal. Biochem. 72:248-254) levels or fixed in 4% paraformaldehyde for NF assay (Doherty et al., 1984, J. Neurochem. 42:1116-1122) and immunocytochemistry. Some cultures were grown in defined medium consisting of 50% F12 and 50% MEM, glutamine (2 mM), insulin (5 ug/ml), transferrin (100 ug/ml), progesterone (20 nM), putrescine (10 uM), and sodium selenite (30 nM) (Bottenstein and Sato, 1979, PNAS 76:514-517). In these cultures sera-containing medium was replaced with defined medium on day 1.
Cultures were harvested by lysing the cells in a 20 mM Tris-HCl (pH 8.6) solution containing 0.1% Triton X-100. Two microliters of the cell lysate was removed and assayed for CAT activity according to the micro-Fonnum procedure (Fonnum, 1975, J. Neurochem. 24:407-409). The final substrate composition consisted of 0.2 mM [1-^14C] Acetyl-CoA (NEN, 54.4 mCi/mmol), 300 mM NaCl, 8 mM choline bromide, 20 mM EDTA, and 0.1 mM neostigmine in 50 mM NaH2PO4 (pH 7.4) buffer. At these enzyme and substrate concentrations, the enzymatic reaction was linear for 90-120 minutes. The specificity of the induction for CAT was tested by the addition of a specific inhibitor of CAT activity, N-hydroxyethyl-4-(1-napthylvinyl) pyridium (HNP), during the assay (White and Cavallito, 1970, J. Neurochem. 17:1579-1589).

[8] = tested on: GABAergic neurons (hippocampal cultures); assay: Effect of other neurotrophic factors on GABAergic hippocampal neurons in culture; type: cell-based, rat
Procedure: Hippocampi were dissected from E18-19 rat embryos of Sprague-Dawley rats, and collected in F10 medium. The tissues were minced, rinsed twice with F10 medium (Gibco) and trypsinized with 0.25% trypsin (Gibco) for 20 minutes at 37° C. Trypsin was inactivated by the addition of a serum-containing medium composed of minimal essential medium (MEM) supplemented with fetal calf serum (FCS, 10%), glutamine (2 mM), penicillin (25 U/ml) and streptomycin (25 ug/ml). Dissociated cells obtained by gentle trituration were collected and centrifuged at low speed (500 rpm) for 30 seconds. The centrifugation was repeated twice, and the cell pellets were then resuspended in serum-containing medium. The cells were then plated onto 6 mm wells or 35 mm dishes that were coated with polyornithine (10 ug/ml) and laminin (10 ug/ml). In most of the experiments, the cells were plated at a low density of approximately 71,000 cells/cm^2. Five to six hours following the plating of cells, medium was changed to a serum-free medium containing 1% N3 and penicillin-streptomycin (25 units/ml and 25 ug/ml, respectively), at which time CNTF was added. Medium was changed every three to four days, with re-addition of the factor. […]

| Molecule | CNTF activity in DRG assay [1] | activity towards chick ciliary neurons compared with rat CNTF [2] | maximum fiber outgrowth at saturating levels, relative to saturating levels of NGF (E10 chick DRG) | μg protein dish [3] [μg protein dish] | CAT Activity [4] [CPM/dish] | Protein [4] [μg/dish] | increase in NF content versus untreated controls [5] | increase in AchE-positive neurons versus untreated controls [6] | increase in CAT activity [7] | effect on / survival of GABAergic neurons [8] |
| --- | --- | --- | --- | --- | --- | --- | --- | --- | --- | --- |
| recombinant human CNTF: human ciliary neurotrophic factor expressed in E. coli (protein, UniProt P26441 1-200, looked up) Ciliary neurotrophic factor: MAFTEHSPLTPHRRDLCSRSIWLARKIRSDLTALTESYVKHQGLNKNINLDSADGMPVASTDQWSELTEAERLQENLQAYRTFHVLLARLLEDQQVHFTPTEGDFHQAIHTLLLQVAAFAYQIEELMILLEYKIPRNEADGMPINVGDGGLFEKKLWGLKVLQELSQWTVRSIHDLRFISSHQTGIPARGSHYIANNKKM | CNTF activity | as active as rat CNTF | 50-75% |  |  |  |  |  |  |  |
| NGF: mouse nerve growth factor (protein, UniProt P01139 122-241, looked up) Beta-nerve growth factor: SSTHPVFHMGEFSVCDSVSVWVGDKTTATDIKGKEVTVLAEVNINNSVFRQYFFETKCRASNPVESGCRGIDSKHWNSYCTTTHTFVKALTTDEKQAAWRFIRIDTACVCVLSRKATRRG |  |  |  | 20 | 621.25 ± 33.59 | 38 | did not produced any significant effect | small effect | no effect | not able to detect any effect |
